Tested on: rat model of pulmonary hypertension induced by monocrotaline
Assay: rat model of pulmonary hypertension induced by monocrotaline
Type: in vivo, rat (Sprague Dawley)
Experimental: To further evaluate the effect of anti-Activin A antibodies in pulmonary arterial hypertension, a rat model of pulmonary hypertension induced by monocrotaline was used.
Six to seven week old Sprague Dawley rats were used. Rats were separated into treatment groups such that body weights were similar among different groups. Rats were subcutaneously administered either 40 mg/kg of monocrotaline or 5 mL/kg of saline at day 0. At 14 days post injection, saline-injected rats were orally dosed with PEG 400 (at 50:50 v/v, Affymetrix Inc., #19957) at 5 mL/kg daily for two weeks, and monocrotaline-injected rats were separated into 5 groups with a group (n=9) orally dosed with PEG 400 at 5 mL/kg daily for two weeks, another group (n=12) orally administered macintentan at 30 mg/kg daily for two weeks, and three groups that were both orally dosed with PEG 400 at 5 mL/kg daily for two weeks and subcutaneously treated with either anti-Activin A antibodies, H4H10430P (n=9), H4H10446P2 (n=11), or an isotype control antibody (n=10) at 40 mg/kg twice a week for two weeks.
At day 27, pulmonary artery size and right ventricular function and dimensions of the rats were assessed using a high frequency ultrasound system (Vevo 2100, VisualSonics). For the assessment, rats were anesthetized (with 1.5% isoflurane at a rate of 1.0 cc/mL of medical grade air) and their temperature was monitored with a rectal temperature probe and held at approximately 37° C. with a heated platform (Vevo 2100, Visualsonics) and a warming lamp. Both brightness-mode (B-mode) and motion-mode (M-mode) imaging were used. B-mode imaging of the rat heart in cross-section was used to determine pulmonary artery cross-sectional area (PA CSA) at the level of the pulmonary valve. […] was used to determine the pulsed wave velocity time integral (VTI), which is derived from the area under the curve of representative Doppler tracings of blood flow through the pulmonary artery. Right ventricular stroke volume (RV SV) was calculated from the product of PA CSA and VTI. Right ventricular cardiac output (RV CO) was calculated from the product of SV and heart rate (HR). M-mode imaging was used to determine right ventricular free wall (RVFW) thickness during diastole and systole. […]
Right ventricular pressure was subsequently assessed for all treatment groups. […] The catheter was connected to pressure/volume instrument (MPVS-300, Millar Instruments, Inc.) that measured heart rate as well as both diastolic and systolic right ventricular pressures. […] Readings were quantified from a 60 second interval of the pressure tracing (following a 2 minute period of recording to allow for pressure stabilization). The parameters analyzed were RV diastolic and systolic pressures, heart rate and ventricular contractile function. […]

[1] = monocrotaline 40 mg/kg SC day 0, antibodies 40 mg/kg SC 2x/wk, macitentan 30 mg/kg PO daily from day 14 for two weeks, ultrasound day 27

B1: H4H10430P: fully human anti-Activin A antibody, human IgG4 Fc; HCVR/LCVR SEQ ID NOs 66/74 (antibody, V domains shown)
VH: EVQLVESGGGLVQPGRSLRLSCKASGFAFDDFAMHWVRQAPGKGLEWVSGIVWNSGDIGYADSVKGRFTISRDNAKNSLYLQLNSLRTEDTALYFCVKDMVRGLMGFNYYGMDVWGQGTTVTVSS
VL: EIVLTQSPATLSLSPGERATLSCRASQTISTYLVWYRQRPGQAPSLLIYDASNRATDIPARFSGSGSGTDFTLTISSLEPEDFAVYYCQQRSNWPITFGQGTRLEIK
PA CSA (Ave ± SEM) [1]: 9.439 ± 0.516%% mm^2 | Right Ventricular cardiac output (Ave ± SEM) [1]: 130.0 ± 12.5 mL/min | Stroke Volume (Ave ± SEM), right ventricular [1]: 362.8 ± 32.6 µL | effect on PA CSA (in words) (monocrotaline-injected rats, FIG. 3A): restored PA CSA to values measured for saline-injected PEG 400 dosed rats

From patent US20180008672A1, “ANTI-ACTIVIN A ANTIBODIES AND METHODS OF USE THEREOF FOR TREATING PULMONARY ARTERIAL HYPERTENSION” (Regeneron Pharmaceuticals, Inc., priority 2016, published 2018)
